Key:
Assay in all cases: ELISA
[1] = molecular target: Apolipoprotein E3 (LipoE3) (Homo sapiens, UniProt P02649)
[2] = molecular target: Apolipoprotein E2 (LipoE2) (Homo sapiens, UniProt P02649)
[3] = molecular target: Apolipoprotein E4 (LipoE4) (Homo sapiens, UniProt P02649)
Chain of Apolipoprotein E4 (LipoE4) (P02649 19-317): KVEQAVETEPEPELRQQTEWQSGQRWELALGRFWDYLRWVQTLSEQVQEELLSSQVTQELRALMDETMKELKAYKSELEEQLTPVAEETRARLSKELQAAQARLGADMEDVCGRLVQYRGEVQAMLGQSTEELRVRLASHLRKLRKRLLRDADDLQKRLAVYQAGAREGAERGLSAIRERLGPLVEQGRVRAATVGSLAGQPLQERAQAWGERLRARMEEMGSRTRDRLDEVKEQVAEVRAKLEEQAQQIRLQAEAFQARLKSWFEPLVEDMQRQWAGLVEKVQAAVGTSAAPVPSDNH

Chain of Apolipoprotein E3 (LipoE3) (P02649 19-317): as above
Chain of Apolipoprotein E2 (LipoE2) (P02649 19-317): as above

B1: Haptoglobin (phenotype 1-1) (protein)
chain 1: VDSGNDVTDIADDGCPKPPEIAHGYVEHSVRYQCKNYYKLRTEGDGVYTLNDKKQWINKAVGDKLPECEADDGCPKPPEIAHGYVEHSVRYQCKNYYKLRTEGDGVYTLNNEKQWINKAVGDKLPECEAVCGKPKNPANPVQ
chain 2: ILGGHLDAKGSFPWQAKMVSHHNLTTGATLINEQWLLTTAKNLFLNHSENATAKDIAPTLTLYVGKKQLVEIEKVVLHPNYSQVDIGLIKLKQKVSVNERVMPICLPSKDYAEVGRVGYVSGWGRNANFKFTDHLKYVMLPVADQDQCIRHYEGSTVPEKKTPKSPVGVQPILNEHTFCAGMSKYQEDTCYGDAGSAFAVHDLEEDTWYATGILSFDKSCAVAEYGVYVKVTSIQDWVQKTIAEN
modifications: ApoE3 isoform, lecithin liposome-associated
Kd [1]: 59.6 nM

B2: Haptoglobin (phenotype 1-1) (protein)
chain 1: VDSGNDVTDIADDGCPKPPEIAHGYVEHSVRYQCKNYYKLRTEGDGVYTLNDKKQWINKAVGDKLPECEADDGCPKPPEIAHGYVEHSVRYQCKNYYKLRTEGDGVYTLNNEKQWINKAVGDKLPECEAVCGKPKNPANPVQ
chain 2: ILGGHLDAKGSFPWQAKMVSHHNLTTGATLINEQWLLTTAKNLFLNHSENATAKDIAPTLTLYVGKKQLVEIEKVVLHPNYSQVDIGLIKLKQKVSVNERVMPICLPSKDYAEVGRVGYVSGWGRNANFKFTDHLKYVMLPVADQDQCIRHYEGSTVPEKKTPKSPVGVQPILNEHTFCAGMSKYQEDTCYGDAGSAFAVHDLEEDTWYATGILSFDKSCAVAEYGVYVKVTSIQDWVQKTIAEN
modifications: ApoE2 isoform, lecithin liposome-associated
Kd [2]: 58.2 nM

B3: Haptoglobin (phenotype 1-1) (protein)
chain 1: VDSGNDVTDIADDGCPKPPEIAHGYVEHSVRYQCKNYYKLRTEGDGVYTLNDKKQWINKAVGDKLPECEADDGCPKPPEIAHGYVEHSVRYQCKNYYKLRTEGDGVYTLNNEKQWINKAVGDKLPECEAVCGKPKNPANPVQ
chain 2: ILGGHLDAKGSFPWQAKMVSHHNLTTGATLINEQWLLTTAKNLFLNHSENATAKDIAPTLTLYVGKKQLVEIEKVVLHPNYSQVDIGLIKLKQKVSVNERVMPICLPSKDYAEVGRVGYVSGWGRNANFKFTDHLKYVMLPVADQDQCIRHYEGSTVPEKKTPKSPVGVQPILNEHTFCAGMSKYQEDTCYGDAGSAFAVHDLEEDTWYATGILSFDKSCAVAEYGVYVKVTSIQDWVQKTIAEN
modifications: ApoE4 isoform, lecithin liposome-associated
Kd [3]: 54.9 nM
